Results reported in publication PMC7948970.

Tests used:
Assay in all cases: SEC; analytical gel filtration on an XBridge BEH SEC 200 Å 3.5 μm column; molecular weight estimated from a standard curve (thyroglobulin, immunoglobin, BSA, myoglobulin)
[1] = molecular target: Staphylococcus aureus oleate hydratase (OhyA) (Staphylococcus aureus)
[2] = molecular target: Staphylococcus aureus oleate hydratase OhyA(Y201F) (Staphylococcus aureus)
[3] = molecular target: Staphylococcus aureus oleate hydratase OhyA(E82A) (Staphylococcus aureus)

Staphylococcus aureus oleate hydratase (OhyA) (enzyme)
stoichiometry N [1]: 2

Staphylococcus aureus oleate hydratase OhyA(Y201F) (enzyme)
stoichiometry N [2]: 2

Staphylococcus aureus oleate hydratase OhyA(E82A) (enzyme)
stoichiometry N [3]: 2
